Positions count from the first letter of the chain named.
T1: human IL-12 (human, UniProt P29459 23-219; P29460 23-328)
T1 construct: recombinant human IL-12 heterodimer (p35/p40, disulfide-linked); also called hIL-12; rhIL-12
T1 sequence (looked up) 1: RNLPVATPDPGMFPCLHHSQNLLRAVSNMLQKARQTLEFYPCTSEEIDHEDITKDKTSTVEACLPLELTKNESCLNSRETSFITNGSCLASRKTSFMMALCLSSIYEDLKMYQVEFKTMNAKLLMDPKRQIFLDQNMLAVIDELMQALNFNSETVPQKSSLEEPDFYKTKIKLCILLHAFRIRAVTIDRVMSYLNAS
T1 sequence (looked up) 2: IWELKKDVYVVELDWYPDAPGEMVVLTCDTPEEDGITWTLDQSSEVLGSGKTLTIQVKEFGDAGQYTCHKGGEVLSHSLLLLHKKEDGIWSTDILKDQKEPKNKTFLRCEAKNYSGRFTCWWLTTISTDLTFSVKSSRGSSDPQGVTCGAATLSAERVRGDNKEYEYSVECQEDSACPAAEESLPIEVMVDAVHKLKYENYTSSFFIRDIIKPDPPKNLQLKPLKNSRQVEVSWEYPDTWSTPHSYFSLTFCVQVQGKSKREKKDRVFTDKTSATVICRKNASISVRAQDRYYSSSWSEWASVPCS

B1: 31-A6 (scFv, V domains shown)
VH: QVQLVQSGGGVVQPGRSLRLSCAASGFTFSSYGMHWVRQAPGKGLEWVAFIRYDGSNKYYADSVKGRFTISRDNSKNTLYLQMKSLRAEDTAVYYCKTHGSHDNWGQGTMVTVSS
VL: SYVLTQPPSVSGTPGQRVTISCSGGRSNIGSNTVKWYQQLPGTAPKLLIYGNDQRPSGVPDRFSGSKSGTSASLAITGVQAEDEADYYCQSYDRGTHPNLNFGTGTKVTVL
notes: scFv
B2: B8 (scFv, V domains shown)
VH: B1 VH
VL: B1 VL with T96H, H97T, P98A, N99H, N101Y
notes: scFv
B3: 156-17 (scFv, V domains shown)
VH: B1 VH with K97T
VL: B1 VL with R94S, G95S, T96L, H97W, P98G, N99T, L100R, N101V
notes: scFv
B4: B9 (scFv, V domains shown)
VH: B1 VH
VL: B1 VL with T96R, H97A, P98A, N99H, L100P, N101Q
notes: scFv
B5: B7 (scFv, V domains shown)
VH: B1 VH
VL: B1 VL with T96D, H97S, P98N, N99H, L100D, N101L
notes: scFv
B6: 101-5 (scFv, V domains shown)
VH: B1 VH with K97T, H99S, H102I, N104Y
VL: B1 VL with R94S, G95S, T96L, H97T, P98G, N99S, L100R, N101V
notes: scFv
B7: 156-1 (scFv, V domains shown)
VH: B1 VH with K97T, N104T
VL: B1 VL with G95D, T96F, H97T, P98G, N99S, L100R, N101V
notes: scFv
B8: 43-G3 (scFv, V domains shown)
VH: B1 VH
VL: B1 VL with T96I, H97W
notes: scFv
B9: 70-13 (scFv, V domains shown)
VH: B1 VH with K97T, H99S, H102I, N104Y
VL: B1 VL with R94S, G95S, T96L, H97R, P98G, N99S, L100R, N101V
notes: scFv
B10: A4 (scFv, V domains shown)
VH: B1 VH
VL: B1 VL with T96R, H97N, N99A, N101T
notes: scFv
B11: A9 (scFv, V domains shown)
VH: B1 VH
VL: B1 VL with T96P, H97A, P98R, N99T, L100S, N101P
notes: scFv
B12: B3 (scFv, V domains shown)
VH: B1 VH
VL: B1 VL with H97P, P98S, N99Y, L100P, N101T
notes: scFv
B13: A7 (scFv, V domains shown)
VH: B1 VH
VL: B1 VL with T96H, H97N, P98N, N99F, L100S, N101P
notes: scFv
B14: 144-F1 (scFv, V domains shown)
VH: B1 VH
VL: B1 VL with T96H, P98Y, N99T, L100T, N101F
notes: scFv
B15: 31-B5 (scFv, V domains shown)
VH: B1 VH
VL: B1 VL with N99S, L100I, N101S
notes: scFv
B16: A11 (scFv, V domains shown)
VH: B1 VH
VL: B1 VL with H97F, N99S, L100P, N101Q
notes: scFv
B17: A1 (scFv, V domains shown)
VH: B1 VH
VL: B1 VL with T96L, H97P, P98R, N99L, L100T, N101H
notes: scFv
B18: 70-7 (scFv, V domains shown)
VH: B1 VH with K97T, H99R, G100R, S101R, H102S, D103N, N104Y
VL: B1 VL with R94S, G95S, T96L, H97R, P98G, N99S, L100R, N101V
notes: scFv
B19: B2 (scFv, V domains shown)
VH: B1 VH
VL: B1 VL with T96R, H97P, P98R, N99H, L100A, N101L
notes: scFv
B20: 177-C6 (scFv, V domains shown)
VH: B1 VH
VL: B1 VL with N99V, L100P, N101A
notes: scFv
B21: 177-H10 (scFv, V domains shown)
VH: B1 VH
VL: B1 VL with N99T, L100M, N101Y
notes: scFv
B22: 170-15 (scFv, V domains shown)
VH: B1 VH with K97T, H99S, H102Y, N104Y
VL: B1 VL with T96L, H97T, P98G, N99Y, L100R, N101L
notes: scFv
B23: 170-21 (scFv, V domains shown)
VH: B1 VH with K97T, H102Q
VL: B1 VL with T96F, H97T, P98G, N99P, L100R, N101L
notes: scFv
B24: A5 (scFv, V domains shown)
VH: B1 VH
VL: B1 VL with N99S, L100M, N101L
notes: scFv
B25: A12 (scFv, V domains shown)
VH: B1 VH
VL: B1 VL with H97T, N99R, L100P, N101M
notes: scFv
B26: 170-11 (scFv, V domains shown)
VH: B1 VH with K97T, H99S, H102Y, N104Y
VL: B1 VL with T96L, H97T, P98G, N99F, L100R, N101V
notes: scFv
B27: A2 (scFv, V domains shown)
VH: B1 VH
VL: B1 VL with T96P, H97Y, P98H, N99P, L100I, N101R
notes: scFv
B28: 101-4 (scFv, V domains shown)
VH: B1 VH with K97T, H99S, H102I, N104Y
VL: B1 VL with R94S, G95S, T96L, H97T, P98G, N99S, L100R, N101V
notes: scFv
B29: 103-1 (scFv, V domains shown)
VH: B1 VH with K97T, H99Q, S101R
VL: B1 VL with T96F, H97T, P98G, N99S, L100R, N101V
notes: scFv
B30: 156-3 (scFv, V domains shown)
VH: B1 VH with K97T, N104T
VL: B1 VL with R94N, T96F, H97T, P98G, N99A, L100R, N101V
notes: scFv
B31: 70-2 (scFv, V domains shown)
VH: B1 VH with K97T, H102Y, N104Y
VL: B1 VL with R94S, G95S, T96L, H97R, P98G, N99S, L100R, N101V
notes: scFv
B32: 170-35 (scFv, V domains shown)
VH: B1 VH with K97A, H102Q
VL: B1 VL with T96F, H97T, P98G, N99S, L100R, N101V
notes: scFv
B33: 156-6 (scFv, V domains shown)
VH: B1 VH with K97T
VL: B1 VL with G95D, T96F, H97T, P98G, N99S, L100R, N101V
notes: scFv
B34: 101-9 (scFv, V domains shown)
VH: B1 VH with K97T, H102Y, N104Y
VL: B1 VL with R94S, G95S, T96L, H97T, P98G, N99S, L100R, N101V
notes: scFv
B35: A3 (scFv, V domains shown)
VH: B1 VH
VL: B1 VL with T96Y, H97P, P98R, L100I, N101L
notes: scFv
B36: 170-1 (scFv, V domains shown)
VH: B1 VH with K97T, H99S, H102Y, N104Y
VL: B1 VL with T96F, H97T, P98G, N99F, L100K, N101V
notes: scFv
B37: B5 (scFv, V domains shown)
VH: B1 VH
VL: B1 VL with T96Q, H97P, P98H, N99A, L100V, N101L
notes: scFv
B38: 101-14 (scFv, V domains shown)
VH: B1 VH with K97T, H102Y, N104Y
VL: B1 VL with T96F, H97T, P98G, N99S, L100R, N101V
notes: scFv
B39: A6 (scFv, V domains shown)
VH: B1 VH
VL: B1 VL with N99W, N101H
notes: scFv
B40: 43-G2 (scFv, V domains shown)
VH: B1 VH
VL: B1 VL with T96S, H97S, N99A, L100I, N101M
notes: scFv
B41: 177-G6 (scFv, V domains shown)
VH: B1 VH
VL: B1 VL with N99T, L100M, N101I
notes: scFv
B42: 170-19 (scFv, V domains shown)
VH: B1 VH with K97T
VL: B1 VL with T96F, H97T, P98D, N99Y, L100K, N101V
notes: scFv
B43: A10 (scFv, V domains shown)
VH: B1 VH
VL: B1 VL with T96N, H97S, N99A, L100T, N101V
notes: scFv

Molecular target: T1, human IL-12
Assay: SPR (BIAcore), IL-12 chip
Source text: The system utilizes the optical properties of SPR to detect alterations in protein concentrations within a dextran biosensor matrix. Proteins are covalently bound to the dextran matrix at known concentrations. […] To determine the off rate (koff), on rate (kₒₙ), association rate (Ka) and dissociation rate (Kd) constants, BIAcore kinetic evaluation software (version 2.1) was used.

Binder	koff
B1	0.0005 s⁻¹
B2	0.0024 s⁻¹
B3	0.006 s⁻¹
B4	0.00866 s⁻¹
B5	0.00545 s⁻¹
B6	0.0445 s⁻¹
B7	0.005 s⁻¹
B8	0.0009 s⁻¹
B9	0.072 s⁻¹
B10	0.00147 s⁻¹
B11	0.00798 s⁻¹
B12	0.00412 s⁻¹
B13	0.00395 s⁻¹
B14	0.00058 s⁻¹
B15	0.0005 s⁻¹
B16	0.00207 s⁻¹
B17	0.00566 s⁻¹
B18	0.129 s⁻¹
B19	0.00361 s⁻¹
B20	0.000794 s⁻¹
B21	0.00344 s⁻¹
B22	0.00443 s⁻¹

Binder	koff
B23	0.00369 s⁻¹
B24	0.00112 s⁻¹
B25	0.00143 s⁻¹
B26	0.00044 s⁻¹
B27	0.0038 s⁻¹
B28	0.00976 s⁻¹
B29	0.0029 s⁻¹
B30	0.009 s⁻¹
B31	0.033 s⁻¹
B32	1e-05 s⁻¹
B33	0.003 s⁻¹
B34	0.00854 s⁻¹
B35	0.00251 s⁻¹
B36	0.00235 s⁻¹
B37	0.00304 s⁻¹
B38	0.00752 s⁻¹
B39	0.00187 s⁻¹
B40	0.0007 s⁻¹
B41	0.00055 s⁻¹
B42	0.001 s⁻¹
B43	0.00187 s⁻¹

Reference: US20150037348A1 (AbbVie / Abbott, published 2015)
